For this series, the target named is T1, N-HvGR-RBP1 (RRM domain) (Hordeum vulgare L., UniProt J7FTI7 1-92).
T1 sequence: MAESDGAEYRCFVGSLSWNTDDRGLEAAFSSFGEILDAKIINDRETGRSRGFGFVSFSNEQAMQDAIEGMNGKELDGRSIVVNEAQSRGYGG
Briefly: NMR.

For TTCTGA (ssDNA) [TTCTGA 6-mer], the binding result is on record as “binds”.
Under TTCTGT (ssDNA) [TTCTGT 6-mer] stands “binds”.

(Values after article PMC4278681.)
